Measurements taken from the supplement of paper PMC11246515.
± gives the standard deviation of the averaged measurements.

Test: total protein half-life in vivo (active degradation + dilution); higher = more stable protein
[1] = E. coli NCM3722 delta-clpP delta-lon delta-hslV, growth: N-lim chemostat, doubling time 6 h
[2] = E. coli NCM3722 delta-clpP, growth: N-lim chemostat, doubling time 6 h
[3] = E. coli NCM3722 delta-hslV, growth: N-lim chemostat, doubling time 6 h
[4] = E. coli NCM3722 delta-lon, growth: N-lim chemostat, doubling time 6 h
[5] = E. coli NCM3722 delta-smpB, growth: N-lim chemostat, doubling time 6 h
[6] = wild type E. coli NCM3722, growth: C-lim chemostat, doubling time 3 h
[7] = wild type E. coli NCM3722, growth: C-lim chemostat, doubling time 6 h
[8] = wild type E. coli NCM3722, growth: C-lim chemostat, doubling time 12 h
[9] = wild type E. coli NCM3722, growth: N-lim chemostat, doubling time 6 h
[10] = wild type E. coli NCM3722, growth: N-lim chemostat, doubling time 12 h
[11] = wild type E. coli NCM3722, growth: P-lim chemostat, doubling time 6 h
[12] = wild type E. coli NCM3722, growth: P-lim chemostat, doubling time 12 h

Sequence | total protein half-life in vivo [1] [h] | total protein half-life in vivo [2] [h] | total protein half-life in vivo [3] [h] | total protein half-life in vivo [4] [h] | total protein half-life in vivo [5] [h] | total protein half-life in vivo [6] [h] | total protein half-life in vivo [7] [h] | total protein half-life in vivo [8] [h] | total protein half-life in vivo [9] [h] | total protein half-life in vivo [10] [h] | total protein half-life in vivo [11] [h] | total protein half-life in vivo [12] [h]
MKSVLKVSLAALTLAFAVSSHAADKKLVVATDTAFVPFEFKQGDKYVGFDVDLWAAIAKELKLDYELKPMDFSGIIPALQTKNVDLALAGITITDERKKAIDFSDGYYKSGLLVMVKANNNDVKSVKDLDGKVVAVKSGTGSVDYAKANIKTKDLRQFPNIDNAYMELGTNRADAVLHDTPNILYFIKTAGNGQFKAVGDSLEAQQYGIAFPKGSDELRDKVNGALKTLRENGTYNEIYKKWFGTEPK [P0AEQ3] | 4.537 ± 0.04 | 6.03 ± 2.1 | 6.84 ± 0.17 | 6.824 ± 0.065 | 6.44 ± 0.68 | 3.38 ± 0.19 | 6.48 ± 0.26 | 11.8 ± 1.3 | 6.43 ± 0.32 | 13.1 ± 0.91 | 6.13 ± 0.34 | 14.08 ± 0.14
MKTAKEYSDTAKREVSVDVDALLAAINEISESEVHRSQNDSEHVSVDGREYHTWRELADAFELDIHDFSVSEVNR | 4.23 ± 0.73 | 1.58 |  | 0.678 | 0.551 |  |  | 1.38 |  | 1.03 |  | 
MKTALLLEKLEGQLATLRQRCAPVSQFATLSARFDRHLFQTRATTLQACLDEAGDNLAALRHAVEQQQLPQVAWLAEHLAAQLEAIAREASAWSLREWDSAPPKIARWQRKRIQHQDFERRLREMVAERRARLARVTDLVEQQTLHREVEAYEARLARCRHALEKIENRLARLTR | 4.68 ± 0.36 | 2.5 ± 0.12 | 2.39 ± 0.15 | 4.09 ± 0.54 | 2.21 ± 0.046 | 1.955 ± 0.0034 | 3.69 ± 0.51 | 6.06 ± 3.5 | 2.58 ± 0.12 | 2.85 ± 0.6 | 2.92 ± 0.094 | 5.17 ± 0.34
MKTAYIAKQRQISFVKSHFSRQLEERLGLIEVQAPILSRVGDGTQDNLSGCEKAVQVKVKALPDAQFEVVHSLAKWKRQTLGQHDFSAGEGLYTHMKALRPDEDRLSPLHSVYVDQWDWERVMGDGERQFSTLKSTVEAIWAGIKATEAAVSEEFGLAPFLPDQIHFVHSQELLSRYPDLDAKGRERAIAKDLGAVFLVGIGGKLSDGHRHDVRAPDYDDWSTPSELGHAGLNGDILVWNPVLEDAFELSSMGIRVDADTLKHQLALTGDEDRLELEWHQALLRGEMPQTIGGGIGQSRLTMLLLQLPHIGQVQCGVWPAAVRESVPSLL | 2.59 ± 0.04 | 4.18 ± 2.2 | 3.06 ± 0.71 |  | 2.771 ± 0.0098 | 2.53 ± 0.085 | 2.9 ± 0.16 | 5.26 ± 0.4 | 2.29 ± 0.19 | 4.02 ± 1 | 2.37 ± 0.58 | 5.24 ± 1.9
MKTINTVVAAMALSTLSFGVFAAEPVTASQAQNMNKIGVVSADGASTLDALEAKLAEKAAAAGASGYSITSATNNNKLSGTAVIYK [P0AAX3] |  |  |  |  | 0.346 |  |  |  |  |  |  | 
MKTKIPDAVLAAEVSRRGLVKTTAIGGLAMASSALTLPFSRIAHAVDSAIPTKSDEKVIWSACTVNCGSRCPLRMHVVDGEIKYVETDNTGDDNYDGLHQVRACLRGRSMRRRVYNPDRLKYPMKRVGARGEGKFERISWEEAYDIIATNMQRLIKEYGNESIYLNYGTGTLGGTMTRSWPPGNTLVARLMNCCGGYLNHYGDYSSAQIAEGLNYTYGGWADGNSPSDIENSKLVVLFGNNPGETRMSGGGVTYYLEQARQKSNARMIIIDPRYTDTGAGREDEWIPIRPGTDAALVNGLAYVMITENLVDQAFLDKYCVGYDEKTLPASAPKNGHYKAYILGEGPDGVAKTPEWASQITGVPADKIIKLAREIGSTKPAFISQGWGPQRHANGEIATRAISMLAILTGNVGINGGNSGAREGSYSLPFVRMPTLENPIQTSISMFMWTDAIERGPEMTALRDGVRGKDKLDVPIKMIWNYAGNCLINQHSEINRTHEILQDDKKCELIVVIDCHMTSSAKYADILLPDCTASEQMDFALDASCGNMSYVIFNDQVIKPRFECKTIYEMTSELAKRLGVEQQFTEGRTQEEWMRHLYAQSREAIPELPTFEEFRKQGIFKKRDPQGHHVAYKAFREDPQANPLTTPSGKIEIYSQALADIAATWELPEGDVIDPLPIYTPGFESYQDPLNKQYPLQLTGFHYKSRVHSTYGNVDVLKAACRQEMWINPLDAQKRGIHNGDKVRIFNDRGEVHIEAKVTPRMMPGVVALGEGAWYDPDAKRVDKGGCINVLTTQRPSPLAKGNPSHTNLVQVEKV | 5.175 ± 0.011 |  |  |  |  |  | 5.91 |  |  | 6.94 |  | 
MKTKLMTLQDATGFFRDGMTIMVGGFMGIGTPSRLVEALLESGVRDLTLIANDTAFVDTGIGPLIVNGRVRKVIASHIGTNPETGRRMISGEMDVVLVPQGTLIEQIRCGGAGLGGFLTPTGVGTVVEEGKQTLTLDGKTWLLERPLRADLALIRAHRCDTLGNLTYQLSARNFNPLIALAADITLVEPDELVETGELQPDHIVTPGAVIDHIIVSQESK |  |  |  |  |  |  |  | 8.54 |  |  |  | 
MKTLIRKFSRTAITVVLVILAFIAIFNAWVYYTESPWTRDARFSADVVAIAPDVSGLITQVNVHDNQLVKKGQILFTIDQPRYQKALEEAQADVAYYQVLAQEKRQEAGRRNRLGVQAMSREEIDQANNVLQTVLHQLAKAQATRDLAKLDLERTVIRAPADGWVTNLNVYTGEFITRGSTAVALVKQNSFYVLAYMEETKLEGVRPGYRAEITPLGSNKVLKGTVDSVAAGVTNASSTRDDKGMATIDSNLEWVRLAQRVPVRIRLDNQQENIWPAGTTATVVVTGKQDRDESQDSFFRKMAHRLREFG |  | 5.51 |  |  |  |  |  |  |  |  |  | 
MKTLIVSTVLAFITFSAQAAAFQVTSNEIKTGEQLTTSHVFSGFGCEGGNTSPSLTWSGVPEGTKSFAVTVYDPDAPTGSGWWHWTVVNIPATVTYLPVDAGRRDGTKLPTGAVQGRNDFGYAGFGGACPPKGDKPHHYQFKVWALKTEKIPVDSNSSGALVGYMLNANKIATAEITPVYEIK | 4.45 ± 0.4 | 4.74 ± 0.75 |  | 5.18 ± 0.93 | 5.046 ± 0.013 | 2.24 ± 0.28 | 3.37 | 7.12 ± 3.5 | 6.15 ± 0.075 | 10.9 ± 0.48 | 6.28 ± 1.6 | 10.3 ± 1.9
